Laboratory results reported in paper PMC12077105, “PASTA kinase signaling regulates peptidoglycan synthesis in Enterococcus faecalis by direct inhibition of UDP-N-acetylglucosamine 1-carboxyvinyl transferase activity” (mBio, 2025).

T1: recombinant MurAB-His6 (E. faecalis, UniProt Q836E5 1-430)
T1 sequence: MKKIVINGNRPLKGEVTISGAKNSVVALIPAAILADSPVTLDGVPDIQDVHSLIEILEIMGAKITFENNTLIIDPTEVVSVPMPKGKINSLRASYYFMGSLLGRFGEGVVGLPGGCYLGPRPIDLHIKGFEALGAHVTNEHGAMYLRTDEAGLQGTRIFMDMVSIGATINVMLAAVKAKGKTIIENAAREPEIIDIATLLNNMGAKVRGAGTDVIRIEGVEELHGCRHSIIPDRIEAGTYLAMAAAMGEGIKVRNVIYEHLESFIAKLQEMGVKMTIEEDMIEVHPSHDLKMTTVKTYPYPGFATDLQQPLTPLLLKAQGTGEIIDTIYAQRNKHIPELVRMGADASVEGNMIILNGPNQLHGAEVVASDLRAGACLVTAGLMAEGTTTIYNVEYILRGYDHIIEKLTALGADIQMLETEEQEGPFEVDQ


Tests used:
[1] = target: recombinant MurAB-His6 (E. faecalis) (UniProt Q836E5); assay: thermal shift assay; 2.5 uM MurAB with rising molar ratios of test protein, 10x SYPRO Orange, 50 mM Tris, 25 mM NaCl, pH 7.5; change of the MurAB melt temperature
recombinant MurAB-His6 [2] = target: T1, recombinant MurAB-His6; assay: cell-based or functional assay
recombinant MurAB-His6 [3] = target: T1, recombinant MurAB-His6; assay: thermal shift assay; 2.5 uM MurAB with rising molar ratios of test protein, 10x SYPRO Orange, 50 mM Tris, 25 mM NaCl, pH 7.5; change of the MurAB melt temperature; settings: both partners purified

Molecule	maximum shift of the MurAB Tm [1] [°C]	UNAG-CTase activity of purified MurAB (release of inorganic phosphate) with 10-fold molar excess of IreB: decrease of the reaction rate (recombinant MurAB-His6 [2]) [%]	maximum shift of the MurAB Tm (recombinant MurAB-His6 [3]) [°C]
purified recombinant IreB D50A (expressed as His6-SUMO-IreB D50A) (from UniProt Q836B3 1-89) (natural protein)	1.5	–	–
purified recombinant wild-type IreB (expressed as His6-SUMO-IreB) (natural protein, IreB of Enterococcus faecalis; wild-type allele amplified from OG1RF genomic DNA; IreB for the enzymatic assays was purified in MOPS buffer; also called unphosphorylated IreB; source: E. coli BL21(DE3), purified (Ni-charged resin)) MGFTDETVRFDFDDNRKKAISETLETVYRALEEKGYNPINQIVGYLLSGDPAYIPRYQDARNLIRRHERDEIMEELTKYYLANHGIDIK	–	~25	5
